According to patent publication US20250297018A1, “IL-18BP ANTAGONIST ANTIBODIES AND THEIR USE IN MONOTHERAPY AND COMBINATION THERAPY IN THE TREATMENT OF CANCER” (Compugen Ltd., priority 2022, published 2025):

B1: BOJ-5G4-F4: Anti PVRIG mAb 407 mAb mouse IgG1 (antibody, V domains shown)
VH: QVQLQQSGAELAKPGSSVMISCKASGYTFTNYAVHWIKQTTGQALEWTGYIAPGSGVTKYNEKFKGKATLTVDKSSTTAYMQLSSLTPVDTAVYYCASGTTRFAYWGQGTLVTVSS
VL: DIVLTQSPALAVSLGQRATISCRASQSVSLSSYNLMQWYQQKPGQEPKILIYDASNLPSGIPARFSGSGSGTDFTLTIDPVQADDIATYYCQQSKDDPLTFGSGTKLEIK
B2: Engineered IL-18: engineered IL-18, sequence from US 20190070262A1, listed therein as mCS2 (SEQ ID NO: 61) (protein)
chain: HFGRLHCTTAVIRNINDQVLFVDKRQPVFEDMTDIDQSASEPQTRLIIYAYGDSRARGKAVTLSVKDSKMSTLSCKNKIISFEEMDPPENIDDIQSDLIFFQKRVPGHNKMEFESSLYEGHFLACQKEDDAFKLILKKKDENGDKSVMFTLTNLHQSHHHHHH

What was measured:
B16/Db-hmgp100 melanoma = assay: Syngeneic B16/Db-hmgp100 mouse tumor model; type: in vivo; conditions: anti-PVRIG combination study, vs isotype control mAbs
Procedure: B16/Db-hmgp100 cells were kindly provided by Dr. Hanada et al. (HHS agency) and were licensed from NIH. B16/Db-hmgp100 cells were generated by double transduction of B16F10 with H-2 Db and a retrovirus that encodes chimeric mouse gp100 that is comprised of the human gp10025-33 and the rest of mouse gp100. Cells were cultured in RPMI 1640 (Biological Industries, 01-100-1A) with 10% FBS (Biological Industries, 04-127-1A), and 100 μg/mL penicillin/streptomycin (Biological Industries, 03-031-1B), 1% Glutamax (Life technologies, 35050-038, 1% Sodium pyruvate (Biological Industries, 03-042-1B), 0.01% 2-mercaptoethanol (Life technologies, 31350-010, 10 μg/ml Blasticidin (InvivoGen, ant-bl-05). 1×10^5 B16/Db-hmgp100 cells subcutaneously into the back right flank of mice. […]
At day 4 post tumor inoculation mice were treated with mAbs (as detailed below) injected on day 4, 7, 11, 14, 18 and 21 post inoculation. Tumor growth was measured with caliper every 2-3 days. […]
Two-way ANOVA with repeated measures, followed by two-way ANOVA with repeated measures for selected pairs of groups using JMP (Statistical Discoveries™) software. Analyses of tumor growth measurements were performed by comparing tumor volumes measured on the last day on which all study animals were alive. Statistical differences in percentage of mice tumor free were determined by a Log Rank Mantel-Cox test. […]

[1] = MC38ova tumor-bearing mice treated with anti-mIL18BP or engineered mIL-18: weight, serum cytokines, spleen; type: in vivo, mouse
Procedure: Experiments were performed in C57Bl/6 (female, 6-8 wk, Envigo). Mice were anesthetized with 10% Ketamine and 10% Xylazine mixture injected intraperitoneal. Next, mice were inoculated with MC38ova cells (1.2×10^6) subcutaneously to the right flank in 50 μl/mice.
Spleens were harvested from mice 24 hours after the 4th treatment and weighed. For IL15 experiments, mice were treated with a single dose of 0.5 μg, 1.5 μg of IL15, or with a mix of 0.5 μg IL15 and 2.33 μg IL15R.

IL18-BP = biological target: T1, IL18-BP (Mus musculus, UniProt Q9Z0M9); conditions: cited from earlier work
T1 sequence (Q9Z0M9 29-193): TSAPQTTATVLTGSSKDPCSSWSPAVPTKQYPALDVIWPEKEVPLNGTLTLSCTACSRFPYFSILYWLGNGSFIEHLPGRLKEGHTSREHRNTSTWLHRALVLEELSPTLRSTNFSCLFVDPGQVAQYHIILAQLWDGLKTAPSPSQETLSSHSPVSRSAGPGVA

Molecule	Tumor growth (B16/Db-hmgp100 melanoma)	Serum levels of IFNg, TNFa, MCP1 and IL6 ([1]; 4 hours after the 4th treatment, 0.32 mg/kg SC)	Serum levels of IL18 ([1]; 4 hours after the 4th treatment, detection identifies also engineered IL18)	Serum levels of IFNg ([1]; 24 hours after the 4th treatment)	Spleen enlargement compared to control ([1]; 24 hours after the 4th treatment, average)	Serum levels of IL18 ([1]; by 24 hours after the 4th treatment)	Binding to IL18-BP (IL18-BP)
B1	comparable tumor growth to mice treated with isotype control mAbs						
B2		elevated serum levels of IFNg, TNFa, MCP1 and IL6	very high serum levels of IL18	elevated serum levels of IFNg	4.9 folds	returned to baseline	shown not to bind IL18-BP
